According to article PMC4861216:
Several values for one entry are separate records, joined by “and”; a condition that tells them apart may be missing. Identical values can stand only once.

Target: protamine-oligonucleotide nanoparticles (proticles) (salmon)
Assay: co-sedimentation

## apolipoprotein A-I (from UniProt P02647 19-267) (natural protein)
  percent of added apoA-I bound (5 ug apoA-I/10 ug ON): 80%
  stoichiometry N (apoA-I molecules per nanoparticle): 14000 and 15000
